The values that follow come from PMC10983743.

The test addresses T1, Podoplanin (PDPN) on PDPN+ B16-F0 murine melanoma cells (mouse (endogenous in B16-F0)) (UniProt Q62011).
T1 sequence: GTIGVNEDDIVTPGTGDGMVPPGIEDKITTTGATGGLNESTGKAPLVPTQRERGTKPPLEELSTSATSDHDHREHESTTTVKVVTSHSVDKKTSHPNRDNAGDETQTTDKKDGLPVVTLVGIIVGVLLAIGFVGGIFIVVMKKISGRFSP

B1: C-type lectin-like receptor 2 (CLEC-2) on platelets of WT C57BL/6J mice (receptor)
chain: MQDEDGYITLNIKPRKQALSSAEPASSWWRVMALVLLISSMGLVVGLVALGIMSVTQQKYLLAEKENLSATLQQLAKKFCQELIRQSEIKTKSTFEHKCSPCATKWRYHGDSCYGFFRRNLTWEESKQYCTEQNATLVKTASQSTLDYIAERITSVRWIGLSRQNSKKDWMWEDSSVLRKNGINLSGNTEENMNCAYLHNGKIHPASCKERHYLICERNAGMTRVDQLL
Molecule B1 came in with a percent of tumour cells associated with platelets, counted under a fluorescence microscope (WT platelets mixed with PDPN+ B16-F0 cells, 1:200 tumour cells:platelets, 20 min at 37 °C) of 65%.
